This is an account of results in publication PMC2822728 (Neuron, 2010).

The data set deals with the molecule itself. The data set is described as follows: SDS-resistant dimers on SDS-PAGE.

B1: HA-SynDIG1 (full-length mouse SynDIG1, N-terminal HA tag) (natural protein, UniProt A2ANU3 1-258, looked up)
chain: MDGIIEQKSVLVHSKISDAGKRNGLINTRNFMAESRDGLVSVYPAPQYQSHRLVASAAPGSLEGGRSEPVQQLLDPNTLQQSVESHYRPNIILYSDGVLRSWGDGVATDCCETTFIEDRSPTKDSLEYPDGKFIDLSGDDIKIHTLSYDVEEEEELQELESDYSSDTESEDNFLMMPPRDHLGLSVFSMLCCFWPLGIAAFYLSHETNKAVAKGDFHQASTSSRRALFLAVLSITIGTGIYVGVAVALIAYLSKNNHL
As to B1, the stoichiometry N (commonly a count of units in the complex or per binding partner) came out at 2.
